Our source for the binding result, Kd and EC50 values is patent US20230303695A1 (SHANGHAI XBH BIOTECHNOLOGY, published 2023).

Assay [1] has as its target T1, recombinant human IGSF8 extracellular domain tagged by a human Fc region (IGSF8-hFc) (human, UniProt Q969P0 28-579, biotin label in Examples 17, 18 and 28 (site not given)).
T1 construct: also called IGSF8-Fc fusion protein; IGSF8-hFc-biotin; not shown: human Fc region
T1 sequence: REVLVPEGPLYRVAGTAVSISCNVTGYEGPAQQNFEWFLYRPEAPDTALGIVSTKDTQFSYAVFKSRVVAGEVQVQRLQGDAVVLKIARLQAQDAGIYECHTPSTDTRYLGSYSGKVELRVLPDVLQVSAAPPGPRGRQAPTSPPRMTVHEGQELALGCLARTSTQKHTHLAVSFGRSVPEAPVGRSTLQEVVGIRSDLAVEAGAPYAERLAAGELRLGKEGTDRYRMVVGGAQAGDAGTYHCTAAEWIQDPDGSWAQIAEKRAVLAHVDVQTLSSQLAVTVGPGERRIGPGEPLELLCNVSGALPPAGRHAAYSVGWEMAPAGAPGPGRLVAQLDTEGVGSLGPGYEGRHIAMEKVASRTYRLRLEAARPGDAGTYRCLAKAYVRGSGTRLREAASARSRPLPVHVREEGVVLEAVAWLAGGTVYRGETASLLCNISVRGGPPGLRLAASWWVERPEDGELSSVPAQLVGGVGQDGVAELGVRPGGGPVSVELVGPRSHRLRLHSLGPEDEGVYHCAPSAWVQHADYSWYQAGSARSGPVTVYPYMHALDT
The experiment in a line: FACS, biotin-labelled IGSF8 on CT26 cells expressing KIR3DL1/2 constructs, MFI normalized to Thy1.1. (Flow cytometry measures light scatter and fluorescence of single cells or particles in a stream.)

In assay [2] the target is T2, D1 domain of IGSF8 (recombinant protein) (human, UniProt Q969P0 28-149, limits assumed).
T2 construct: domain: D1 (Ig V-set domain); also called Ig V-set domain of IGSF8
T2 sequence (looked up): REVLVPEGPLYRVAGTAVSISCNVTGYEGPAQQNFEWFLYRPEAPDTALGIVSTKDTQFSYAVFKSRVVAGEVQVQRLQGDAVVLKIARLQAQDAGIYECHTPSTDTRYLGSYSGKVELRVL
Kind of assay: SPR, Biacore T100. Background: Surface plasmon resonance follows binding to a sensor surface in real time, without labels.

For assay [3], the target named is T3, human IGSF8 expressed on the cell surface (human, UniProt Q969P0 28-613).
T3 construct: whole, on cells; also called human IGSF8 on CT26 cells; IGSF8 on MC38 cells
T3 sequence (looked up): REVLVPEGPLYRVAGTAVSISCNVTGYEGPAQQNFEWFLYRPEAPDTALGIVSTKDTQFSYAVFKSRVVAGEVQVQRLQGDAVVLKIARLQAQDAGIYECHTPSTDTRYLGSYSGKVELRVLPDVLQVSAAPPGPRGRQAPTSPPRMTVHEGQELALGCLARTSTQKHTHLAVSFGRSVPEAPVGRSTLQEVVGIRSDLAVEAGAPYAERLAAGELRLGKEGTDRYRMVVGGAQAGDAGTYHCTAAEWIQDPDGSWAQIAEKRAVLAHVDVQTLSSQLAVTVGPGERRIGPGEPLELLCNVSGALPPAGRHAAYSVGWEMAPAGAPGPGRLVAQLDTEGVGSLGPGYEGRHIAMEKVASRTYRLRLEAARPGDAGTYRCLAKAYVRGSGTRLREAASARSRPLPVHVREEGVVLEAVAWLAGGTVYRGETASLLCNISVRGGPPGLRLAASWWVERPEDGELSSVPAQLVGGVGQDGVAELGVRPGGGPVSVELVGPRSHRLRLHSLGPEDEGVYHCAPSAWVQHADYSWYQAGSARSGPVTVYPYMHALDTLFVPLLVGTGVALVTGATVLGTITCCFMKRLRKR
Kind of assay: FACS on CT26 cells with forced surface expression of human IGSF8. As for the experimental part:
For antibody binding assays based on cell-expressed antigens, 100,000 cells overexpressing the antigen (either the full-length IGSF8 or the D1 domain thereof) were washed with PBS buffer containing 2% FBS, and then incubated with 100 μL of antibodies or IgG of different concentrations for 30 minutes on ice. Cells were then washed twice with wash buffer, and incubated with 100 μL of 1:100 anti-human Fc-PE antibody for 15 minutes on ice. Cells were washed twice with wash buffer and analyzed on a FACS analyzer (CytoFlex, Beckman).

The target in assay [4] is T4, full-length IGSF8 (recombinant antigen of the SPR screen; IGSF8 target antigen of the phage panning) (human, UniProt Q969P0 28-579, limits assumed).
T4 sequence (looked up): T1 sequence
The experiment in a line: SPR, Biacore T100.

The target in assay [5] is T5, IGSF8 protein without D1 domain (human, UniProt Q969P0 150-579, limits assumed).
T5 construct: domain: D2-4; also called D24; D2-4
T5 sequence (looked up): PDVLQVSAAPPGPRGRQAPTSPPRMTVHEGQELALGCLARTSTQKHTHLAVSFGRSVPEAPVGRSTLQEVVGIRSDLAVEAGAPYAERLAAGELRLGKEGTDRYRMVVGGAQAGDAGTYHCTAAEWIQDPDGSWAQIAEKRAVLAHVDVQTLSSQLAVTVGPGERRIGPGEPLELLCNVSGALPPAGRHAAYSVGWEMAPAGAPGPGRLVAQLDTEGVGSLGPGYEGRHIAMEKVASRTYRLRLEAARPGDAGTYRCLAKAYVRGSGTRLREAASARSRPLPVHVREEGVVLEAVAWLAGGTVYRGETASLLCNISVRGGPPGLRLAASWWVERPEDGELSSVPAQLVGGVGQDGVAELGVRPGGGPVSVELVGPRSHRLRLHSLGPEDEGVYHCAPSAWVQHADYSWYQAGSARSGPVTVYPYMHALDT
Kind of assay: FACS, single antibody dose, IGSF8-D24 (D2-D4 with TM, no D1) expressed on CT26 cells.

In assay [6] the target is T1, recombinant human IGSF8 extracellular …. The experiment in a line: FACS, biotin-labelled IGSF8-hFc on CT26 cells expressing the KIR, MFI normalized to Thy1.1. As for the experimental part:
For this experiment, different human KIR receptors (KIR2DL1, KIR2DL2, KIR2DL3, KIR2DL4, KIR2DL5A, KIR2DL5B, KIR3DL1, KIR3DL2, KIR3DL3) were first cloned into a proprietary lentiviral vector containing a thy1.1 tag (FIG. 17A). Then mouse CT26 cells, were transducted by these lentiviral constructs, and IGSF8 binding was tested with biotin-labelled recombinant IGSF8 hFc fusion protein. The mean fluorescence intensity (MFI) of IGSF8 binding to different CT26 cells were normalized by the expression of different KIRs on CT26 cells using an anti-thy1.1 mAb (Biolegend) via flow cytometry.
KLRC1 also contains a ITIM motif in its intracellular domain, and was known to be a inhibitory receptor of NK or CD8⁺ T cells as part of a heterodimer with KLRD1 on the cell surface. […] Specifically, 100,000 CT26 cells overexpressing the antigens (KIRs or KLRs) were washed with PBS buffer containing 2% FBS, and incubated with 100 μL IGSF8 recombinant proteins or antibodies (5 μg/mL) for 30 minutes on ice. Cells were then washed twice with wash buffer, and incubated with 100 μL of 1:100 anti-human Fc-PE antibody for 15 minutes on ice. Cells were washed twice with wash buffer and analyzed on a FACS analyzer (CytoFlex, Beckman). In these experiments, the mean fluorescence intensity (MFI) of IGSF8 binding to different CT26 cells were normalized by the expression of different KLRs on CT26 cells using an anti-thy1.1 mAb via flow cytometry.

Changes are numbered by the printed parent chain. A value given as a limit tells only on which side of the number the result lay.

The term Kd denotes the concentration at which binding is half-saturated. For orientation: EC50 means the concentration giving half of the maximal effect. Higher therefore signals a less potent agent.

B1: KIR3DL1 D3 construct on CT26 cells (receptor, human, UniProt P43629 222-340, looked up)
chain: EKPSLSAQPGPKVQAGESVTLSCSSRSSYDMYHLSREGGAHERRLPAVRKVNRTFQADFPLGPATHGGTYRCFGSFRHSPYEWSDPSDPLLVSVTGNPSSSWPSPTEPSSKSGNPRHLH
notes: domain: D3; also called D1/D3 construct
For B1, in assay [1], the binding result is listed as “no binding (tested: not shown on the sheet)”.

B2: Antibody C30 (B34) (antibody, V domains shown)
VH: EVQLLESGGGLVQPGGSLRLSCAASGFTFSSYAMSWVRQAPGKGLEWVSGITGSGGSTYYADSVKGRFTISRDNSKNTLYLQMNSLRAEDTAVYYCARGRQVDKWGQGTLVTVSS
VL: DIMLTQSPSSLSASVGDRVTITCRASQSIHNYLNWIQQTPGKAPKLLVFAASTLQRGVPPRYSGRGSGTEFTLTISSLQPEDFATYYCQQSYTTPLTFGGGTKVEIRR
notes: Expressed in CHO cells; also called mAb-B34 (C30)
For B2, the Kd is < 50 nM in assay [2] and 13.8 nM in assay [4]. The same molecule gave an EC50 in assay [3] of 7.88 nM.

B3: Antibody C38 (2B4) (antibody, V domains shown)
VH: EVQLVESGGGLEQPGGSLRLSCAGSGFTFRDYAMTWVRQAPGKGLEWVSSISGSGGNTYYADSVKGRFTISRDNSKNTLYLQMNSLRAEDTAIYYCARGEYSSGWPSWFDPWGQGTLVTVSS
VL: EIVLTQSPSSLSASVGDRVTISCRASRTVGTFLNWYQQRPGKPPQALILGVSILEGGVSSRFSGAGSGTEFSLTISSLQPEDIGTYYCQQSHDVPRTFGQGTKVDLRR
notes: also called mAb-2B4 (C38)
Turning to B3, the Kd in assay [2] was < 50 nM; in assay [4] it was 3.83 nM. In addition, in assay [5], the binding result was “no binding (tested: not shown on the sheet)”. In addition, the EC50 in assay [3] came out at 4.64 nM.

B4: KIR2DL5A expressed on CT26 cells (receptor, human, UniProt Q8N109 22-375, looked up)
chain: HEGGQDKPLLSAWPSAVVPRGGHVTLLCRSRLGFTIFSLYKEDGVPVPELYNKIFWKSILMGPVTPAHAGTYRCRGSHPRSPIEWSAPSNPLVIVVTGLFGKPSLSAQPGPTVRTGENVTLSCSSRSSFDMYHLSREGRAHEPRLPAVPSVNGTFQADFPLGPATHGGTYTCFGSLHDSPYEWSDPSDPLLVSVTGNSSSSSSSPTEPSSKTGIRRHLHILIGTSVAIILFIILFFFLLHCCCSNKKNAAVMDQEPAGDRTVNREDSDDQDPQEVTYAQLDHCVFTQTKITSPSQRPKTPPTDTTMYMELPNAKPRSLSPAHKHHSQALRGSSRETTALSQNRVASSHVPAAGI
notes: whole, on cells
Consider B4, for which, in assay [6], the binding result is listed as “no binding”.

B5: KIR2DL5B expressed on CT26 cells (receptor, human, UniProt Q8NHK3 22-375, looked up)
chain: B4 chain with N152D, G174S
notes: whole, on cells
For the molecule B5, the binding result in assay [6] is “no binding”.

B6: KIR2DL2 expressed on CT26 cells (receptor, human, UniProt P43627 22-348, looked up)
chain: HEGVHRKPSLLAHPGRLVKSEETVILQCWSDVRFEHFLLHREGKFKDTLHLIGEHHDGVSKANFSIGPMMQDLAGTYRCYGSVTHSPYQLSAPSDPLDIVITGLYEKPSLSAQPGPTVLAGESVTLSCSSRSSYDMYHLSREGEAHECRFSAGPKVNGTFQADFPLGPATHGGTYRCFGSFRDSPYEWSNSSDPLLVSVIGNPSNSWPSPTEPSSKTGNPRHLHILIGTSVVIILFILLFFLLHRWCSNKKNAAVMDQESAGNRTANSEDSDEQDPQEVTYTQLNHCVFTQRKITRPSQRPKTPPTDIIVYAELPNAESRSKVVSCP
notes: whole, on cells
In the case of B6, the binding result in assay [6] is “no binding”.

B7: Antibody C37 (3F12) (antibody, V domains shown)
VH: EVQLVQSGGGLVKPGGSLRLSCAASGFTFSSYSMNWVRQAPGKGLEWVSSISSSSSYIYYADSVKGRFTISRDNAKNSLYLQMNSLRAEDTAVYYCAGRQYDFWSGWDWFDPWGQGTLVTVSS
VL: DIQLTQSPSSLSASVGDRVTITCRASQSISTYLNWYQQKPGKAPKLLIHDASILQSGVPSRFSGSGSGTDFTLTISSLQAEDFATYYCQQSYSTLPYTFGQGTKVEIK
notes: also called mAb-3F12(C37)
Consider B7, for which the Kd in assay [2] is < 50 nM; in assay [4] it was 22.5 nM. Moreover, in assay [3], the EC50 amounted to 5.93 nM.

B8: KIR3DL2 D1 construct on CT26 cells (receptor, human, UniProt P43630 22-118, looked up)
chain: LMGGQDKPFLSARPSTVVPRGGHVALQCHYRRGFNNFMLYKEDRSHVPIFHGRIFQESFIMGPVTPAHAGTYRCRGSRPHSLTGWSAPSNPLVIMVT
notes: domain: D1; also called D1/D3 construct
As for B8, the binding result in assay [1] is “no binding (tested: not shown on the sheet)”.

B9: KIR3DL1 D1 construct on CT26 cells (receptor, human, UniProt P43629 22-118, looked up)
chain: HMGGQDKPFLSAWPSAVVPRGGHVTLRCHYRHRFNNFMLYKEDRIHIPIFHGRIFQESFNMSPVTTAHAGNYTCRGSHPHSPTGWSAPSNPVVIMVT
notes: as for B8
For the molecule B9, in assay [1], the binding result is listed as “no binding (tested: not shown on the sheet)”.

B10: KIR3DL2 D3 construct on CT26 cells (receptor, human, UniProt P43630 222-340, looked up)
chain: EKPSLSAQPGPTVQAGENVTLSCSSWSSYDIYHLSREGEAHERRLRAVPKVNRTFQADFPLGPATHGGTYRCFGSFRALPCVWSNSSDPLLVSVTGNPSSSWPSPTEPSSKSGICRHLH
notes: as for B1
Consider B10, for which the binding result in assay [1] is on record as “no binding (tested: not shown on the sheet)”.
